Experimental findings from patent publication US20060018906A1 are described below.

The target of this test is human tumor necrosis factor-α (TNFα) (human) (UniProt P01375). Description: cell-based or functional assay.
human tumor necrosis factor-α (TNFα) (human), sequence (P01375 77-233): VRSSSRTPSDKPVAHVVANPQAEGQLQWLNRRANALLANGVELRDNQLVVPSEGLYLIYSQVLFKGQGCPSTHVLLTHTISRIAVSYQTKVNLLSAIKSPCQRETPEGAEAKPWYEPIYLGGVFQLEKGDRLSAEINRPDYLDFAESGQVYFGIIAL

B1: chimeric mouse/human IgG1 anti-platelet mAb (7E3) (antibody, INN chains, looked up, V domains shown)
VH: EVQLQQSGTVLARPGASVKMSCEASGYTFTNYWMHWVKQRPGQGLEWIGAIYPGNSDTSYIQKFKGKAKLTAVTSTTSVYMELSSLTNEDSAVYYCTLYDGYYVFAYWGQGTLVTVSA
VL: EIVLTQSPVTLSVTPGDSVSLSCRASRDISNNLHWFQQTSHESPRLLIKYASQSMSGIPSRFSGSGSGTDFTLSINSVETEDFGMYFCQQTNSWPYTFGGGTKLEIK
modifications: IgG1
Take B1: the IL-6 concentration in FS-4 fibroblast supernatant; rhTNF 0.3 ng/ml, antibody 4 µg/ml was 1.6 ng/mL; the IL-6 concentration in FS-4 fibroblast supernatant; rhTNF 1.5 ng/ml, antibody 4 µg/ml turned out to be 1.96 ng/mL; the IL-6 concentration in FS-4 fibroblast supernatant; rhTNF 7.5 ng/ml, antibody 4 µg/ml came out at 2.16 ng/mL.
